Results as given in patent publication US20250236667A1, “ANTIBODIES TO MUTANT CALRETICULIN AND USES THEREOF” (CENTRAL ADELAIDE LOCAL HEALTH NETWORK INC, priority 2021, published 2025).

Legend:
[1] = system: TpoR in TF-1 TpoR CALR^del61; assay: TpoR tyrosine phosphorylation, immunoprecipitation and Western blot; type: cell-based, human; settings: 8 hours of 20 μg/mL
Description: A. Cell extracts blotted for phospho-STAT1, total STAT1, phospho-STAT3, total STAT3 and actin from TF-1 TpoR cells after incubation with 10 or 20 μg/mL 4D7 or IgG for 4 or 8 hours as indicated. B. Similar experiment using TPO-independent TF-1 TpoR CALR^del61 cells at 4 and 8 hours. C. Similar experiment shown using TPO-independent TF-1 TpoR CALR^del52 cells, 8 hours. D. Flow cytometry analysis for cell cycle distribution of TF-1 TpoR CALR^del61 cells exposed to 20 μg/mL IgG or 4D7 for 48 hours. Cells were harvested and fixed and stained with propidium iodide and their DNA contents were analysed. Results from one representative experiment shown. Percentages of cells in Sub Go, G1. S and G2/M cycle indicated. E. Western blot showing specific co-immunoprecipitation of mutant CALR^del61 cells with TpoR anti-FLAG antibody under reducing conditions detected by total and mutant specific CALR antibodies. Arrowheads represent detected CALR protein. F. Western blot showing decreased TpoR phosphorylation in a TpoR immunoprecipitated after 8 hours of 20 μg/mL 4D7 treatment compared to PBS or IgG control in TF-1 TpoR CALR^del61. […]

[2] = system: ruxolitinib-resistant TF-1 TpoR CALR^del61 cells; assay: Cell growth in liquid culture, trypan blue exclusion; type: cell-based, human; settings: 20 μg/mL, 96 hours
Description: A. Graph showing effect of ruxolitinib on megakaryocyte differentiation at 50 and 100 nM in healthy CD34+ cells (n=4). B. Effect of 4D7 on TPO-dependent megakaryocyte differentiation of healthy CD34+ cells cultured with 20 μg/mL 4D7 or IgG control (n=4). C. Total numbers of hematopoietic colonies plated in MethoCult from healthy cord blood after treatment with 4D7 or IgG. CFU-GM, colony forming unit-granulocyte macrophage: BFU-E, blast forming unit-erythroid: CFU-GEMM, colony forming unit granulocyte, erythroid, monocyte, megakaryocyte (n=3).D. CD41+megakaryocyte colonies from healthy CD34+ cells observed on collagen matrix after 4D7 treatment. Colonies were cultured in TPO, SCF. IL-9 and IL-3. E. Number of megakaryocyte colony forming units observed in MegaCult assay after treatment of healthy cord blood CD34+ cells with either IgG or 4D7 (n=3). F. Western blot showing signalling in ruxolitinib-resistant TF-1 TpoR CALR^del61 compared to ruxolitinib sensitive TF-1 TpoR CALR^del61 cells after treatment with 100 nM ruxolitinib for 16 hours or 30 minutes and blotted for phospho-STAT5, total STAT5, phospho-ERK, total ERK and actin as indicated. Ruxolitinib-sensitive cells were non-viable after 16 hours of treatment. […] Cells counted using Trypan Blue exclusion with replicate wells (n=3). […]

[3] = system: TF-1 TpoR CALR^del61 cells in NSG mice; assay: Bone marrow engraftment xenograft model; type: in vivo
Description: All procedures were approved by the South Australian Health and Medical Research Animal Ethics Committee (Protocol SAM21-018). Bone marrow engraftment model: 4-6 week old NSG mice were x-ray irradiated with 150 cGy and 5×10^5 cells (TF-1-TpoR CALR^del61) or 5×10^4 cells (100 nM ruxolitinib resistant TF-1 TpoR CALR^del61) were intravenously injected into mice. […] Tail vein bleeds were taken at 3 weeks and analysed via flow cytometry to determine human leukaemia content in the peripheral blood. Leukemic cells were PI-, mCD45.1, hCD33+, zsGreen+. Mice were monitored daily and euthanized once clinical symptoms were observed. At the time of euthanasia, cardiac puncture was performed to obtain both peripheral blood and serum for analysis. Additionally, bone marrow from both femurs, spine and spleens were analysed for leukemic content as detailed above. Chloroma model: 4-6 week old NSG mice were anaesthetised by isoflurane inhalation and shaved on the left back/flank and 1×10^7 cells were injected into the mice. Cells were pre-treated with 20 μg/mL IgG or 4D7 for 1 hour prior to injection. […] Tumour progression was assessed through caliper measurements every 2 days. Mice were euthanised once tumours began to impede movement, show signs of ulceration or if any measurement of the tumour exceeded 30 mm (length, width or depth).

B1: 4D7: rat monoclonal IgG2a antibody against the mutant CALR neoepitope; VH SEQ ID NO: 5, VL SEQ ID NO: 7 (antibody, listed as Rattus rattus, V domains shown)
VH: QVQLQQSGAELAKPGSSVKISCKASGYTFTNYDMSWIKQRPGQALEWIGAINPGNGVTDYNEKFRGKATLTVDKSSSTAFMQLSSLTPEDTAVYHCAREYRDNYGYFDYWGQGVMVTVSS
VL: DIVLTQTPVSLSVTLGDQASISCRSSQSLEYSDGYTYLDWFLQKPGQSPQLLIYEVSSRFSGVPDRFIGRGSGTDFTLKISRVEPEDLGVYYCFQATHDPFTFGSGTKLEIK
TpoR tyrosine phosphorylation [1]: inhibition | inhibitory activity on cell growth in liquid culture [2]: strong inhibitory activity | peripheral blood engraftment of human CD33+ myeloid cells ([3]; 3 weeks, 12.5 mg/kg twice weekly i.p. starting day 7, P=0.01): 0.04% | survival, log-rank hazard ratio ([3]; 4D7 vs IgG, 12.5 mg/kg twice weekly, P=0.003): 0.24
